Data: patent publication US20100135997A1

Target: Class I pMHC on target cells (Mel 624)
Assay: cell-based or functional assay

| IC50 of inhibition of T cell activation (IFN-γ ELISPOT; Mel 624 target cells, MART-1 specific T cell clone) [nM] | Binder |
| --- | --- |
| 0.4 | c138 Fc dimer (polypeptide homodimer Fc fusion) (Fc fusion) HLPKPTLWAEPGSVITMDQPVTLRCQGGQETQQYRLYREKKTAPWITRIPQELVKKGQFPIPSITWEHAGRYRCYYGSDTRQWSASSDPLELVVTGVYIKPTLSAQPSPVVNSGGNVTLQCDSPFQADGFILCKEGEDDHPQCLNSQPHARGSSRAIFSVGPVSPSRRWRYRCYAYDSNSPYEWSLPSDLLELDVDGRMDPSRSVECPPCPAPPVAGPSVFLFPPKPKDTLMISRTPEVTCVVVDVSHEDPEVKFNWYVDGVEVHNAKTKPREEQYNSTYRVVSVLTVLHQDWLNGKEYKCKVSNKGLPSSIEKTISKAKGQPREPQVYTLPPSREEMTKNQVSLTCLVKGFYPSDIAVEWESNGQPENNYKTTPPVLDSDGSFFLYSKLTVDKSRWQQGNVFSCSVMHEGLHNHYTQKSLSLSPGK |
| 2.3 | c64 Fc dimer (ILT Fc fusion homodimer) (Fc fusion) HLPKPTLWAEPGSVITMDQPVTLRCQGGQETQQYRLYREKKTAPWITRIPQELVKKGQFPIPSITWEHAGRYRCYYGSDTRQWSASSDPLELVVTGVYIKPTLSAQPSPVVNSGGNVTLQCDSQVAFDGFILCKEGEDDHPQCLNSQPHARGSSRAIFSVGPVSPSRRWRYRCYAYDSNSPYEWSLPSDLLELDVDGRMDPSRSVECPPCPAPPVAGPSVFLFPPKPKDTLMISRTPEVTCVVVDVSHEDPEVKFNWYVDGVEVHNAKTKPREEQYNSTYRVVSVLTVLHQDWLNGKEYKCKVSNKGLPSSIEKTISKAKGQPREPQVYTLPPSREEMTKNQVSLTCLVKGFYPSDIAVEWESNGQPENNYKTTPPVLDSDGSFFLYSKLTVDKSRWQQGNVFSCSVMHEGLHNHYTQKSLSLSPGK |
| 0.45 | c132 Fc dimer (ILT Fc fusion homodimer) (Fc fusion) HLPKPTLWAEPGSVITMDQPVTLRCQGGQETQEYRLYREKKTAPWITRIPQELVKKGQFPIPSITWEHAGRYRCYYGSDTSQWSASSDPLELVVTGVYIKPTLSAQPSPVVNSGGNVTLQCDSPFQADGFILCKEGEDEHPQCLNSQPHARGSSRAIFSVGPVSPSRRWWYRCYAYMSWSPYEWSLPSDLLELDVDGRMDPSRSVECPPCPAPPVAGPSVFLFPPKPKDTLMISRTPEVTCVVVDVSHEDPEVKFNWYVDGVEVHNAKTKPREEQYNSTYRVVSVLTVLHQDWLNGKEYKCKVSNKGLPSSIEKTISKAKGQPREPQVYTLPPSREEMTKNQVSLTCLVKGFYPSDIAVEWESNGQPENNYKTTPPVLDSDGSFFLYSKLTVDKSRWQQGNVFSCSVMHEGLHNHYTQKSLSLSPGK |
